According to FireProtDB (doi:10.1074/jbc.274.2.717):
Where “and” joins values, the source holds several entries; their conditions need not be identical. Equal entries are not always repeated.

Conditions: Homo sapiens, pH 8.7, Thermal, DSC, reversible: yes, whole UniProt chain shown

B1: Alpha-2-macroglobulin receptor-associated protein wild type, P30533 (protein)
chain: MAPRRVRSFLRGLPALLLLLLFLGPWPAASHGGKYSREKNQPKPSPKRESGEEFRMEKLNQLWEKAQRLHLPPVRLAELHADLKIQERDELAWKKLKLDGLDEDGEKEARLIRNLNVILAKYGLDGKKDARQVTSNSLSGTQEDGLDDPRLEKLWHKAKTSGKFSGEELDKLWREFLHHKEKVHEYNVLLETLSRTEEIHENVISPSDLSDIKGSVLHSRHTELKEKLRSINQGLDRLRRVSHQGYSTEAEFEEPRVIDLWDLAQSANLTDKELEAFREELKHFEAKIEKHNHYQKQLEIAHEKLRHAESVGDGERVSRSREKHALLEGRTKELGYTVKKHLQDLSGRISRARHNEL
Tm (Gly 20 mM, transition: 2): 65.8 °C
unfolding enthalpy (calorimetric) (Gly 20 mM, transition: 2): 56 kcal/mol
unfolding enthalpy (calorimetric) (Glycine 20 mM, transition: 2): 45 kcal/mol and 41 kcal/mol and 59 kcal/mol
unfolding enthalpy (calorimetric) (Glycine 20 mM, transition: 4): 42 kcal/mol and 41 kcal/mol
